# Measured values: article PMC11154707, “Polymer-based antibody mimetics (iBodies) target human PD-L1 and function as a potent immune checkpoint blocker” (The Journal of Biological Chemistry, 2024)
# pEC50, pKd: −log10 of the molar value.
# Legend:
# PD-L1 [1] = settings: read-out: published Kd; cited from earlier work
# [2] = target: T1, PD-1/PD-L1 engagement (hPD-L1-overexpressing Raji B cells, hPD-1-overexpressing Jurkat T cells) (Homo sapiens, UniProt Q9NZQ7); test: IL-2 production in PD-L1 Raji B / PD-1 Jurkat T cell co-culture with SEE; type: cell-based; settings: 25 pg/ml SEE, 24 h co-culture, IL-2 ELISA of supernatants; read-out: EC50 of restored T cell activation (IL-2)
# T1 construct: expressed in transfected cells; host or cells: Raji B cells (PD-L1) co-cultured with Jurkat T cells (PD-1)
# Protocol: (§1) B, PD-L1-overexpressing Raji B cells were pre-incubated with a dilution series of α-PD-L1 compounds in the presence of 25 pg/ml SEE for 1 h and then co-cultured in a 1:1 ratio with PD-1-overexpressing Jurkat T cells for 24 h. Supernatants were collected, and IL-2 levels were measured using ELISA. EC50 was calculated using a 4-parameter logistic function in GraphPad Prism 9.0.0. Data are representative of five independent experiments performed in duplicates, with error bars indicating the standard deviation. C, PD-L1-overexpressing Raji B cells were pre-incubated with 2 nM of α-PD-L1 compounds in the presence of 25 pg/ml SEE for 1 h and then co-cultured in a 1:1 ratio with PD-1-overexpressing Jurkat T cells for 18 h. Cells were collected and stained with BV421-conjugated anti-human CD69 antibody. […] Cells were measured with a BD LSRFortessa instrument (Fig. S9). Data are represented as median fluorescence intensity (MFI). Error bars indicate the standard deviation. D, histograms indicate the percentage of CD69-expressing cells (gated above the basal CD69 expression in the absence of SEE; no SEE). Data were analyzed with FlowJo 10.4.1 and are representative of three independent experiments performed in duplicates. MFI comparison was carried out using a one-way ANOVA test in GraphPad Prism 9.0.0. ∗∗ indicates p-value < 0.01; ns = not significant.
# [3] = target: T1, PD-1/PD-L1 engagement (hPD-L1-overexpressing Raji B cells, hPD-1-overexpressing Jurkat T cells); test: Membrane CD69 expression in PD-L1 Raji B / PD-1 Jurkat T cell co-culture with SEE; type: cell-based; settings: 2 nM compound, 18 h co-culture; for overall expression of CD69 compared with non-treated samples: MFI, one-way ANOVA; for % CD69 (percentage of CD69-expressing cells): gated above basal CD69 without SEE
# Protocol: as §1
# Co-culture for analysis of CD69 expression was set up similarly as above, except that cells were incubated for 18 h in the presence of 2 nM of all compounds. Next, cells were collected by centrifugation (600g, 6 min) and washed once with 200 μl PBS. Corresponding wells were stained with 100 μl of 1:100 BV421-anti-human CD69 antibody (BD Biosciences, cat# 562884) or 100 ng/well isotype control antibody (BD Biosciences cat# 562438) in PBS for 30 min at 4 °C. Afterwards, cells were washed three times with 200 μl PBS followed by viability staining using 100 μl of 1:1000 Zombie NIR fixable viability kit (Biolegend, cat# 423106) in PBS. Finally, the measurement was carried out on an LSRFortessa Flow Cytometer (Becton, Dickinson and Company) and analyzed with FlowJo 10.4.1. The cell population was gated based on their forward and side scatter properties, followed by gating for single and viable cells. The Gating strategy is explained in the Fig. S9.
# PD-L1 [4] = tested on: PD-L1; set-up: method as in http://en.atagenix.com/product_detail-23647.html, 30; settings: indirect ELISA; ref http://en.atagenix.com/product_detail-23647.html, 30; read-out: published EC50, indirect ELISA; cited from earlier work
# T1 sequence (Q9NZQ7 19-290): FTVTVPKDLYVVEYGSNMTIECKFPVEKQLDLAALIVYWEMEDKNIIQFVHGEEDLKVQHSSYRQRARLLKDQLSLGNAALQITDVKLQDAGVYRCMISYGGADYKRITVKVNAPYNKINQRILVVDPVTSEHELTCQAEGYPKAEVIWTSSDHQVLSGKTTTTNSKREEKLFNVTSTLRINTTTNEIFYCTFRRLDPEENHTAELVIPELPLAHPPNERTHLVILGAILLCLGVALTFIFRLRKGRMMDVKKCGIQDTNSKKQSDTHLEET
pEC50 [2],overall expression of CD69 compared with non-treated samples [3],% CD69 (percentage of CD69-expressing cells) [3] [%],Substance,pKd (PD-L1 [1]),pEC50 (PD-L1 [4])
–,–,–,avelumab: FDA-approved PD-L1-targeting monoclonal antibody,10.40,–
9.52,substantial increase,33±4,atezolizumab: FDA-approved PD-L1-targeting monoclonal antibody,–,–
9.22,substantial increase,36±1,durvalumab: FDA-approved PD-L1-targeting monoclonal antibody,–,~9.49
